According to PMC5636944:

Molecular target: K63 diubiquitin (K63 diUb)
Experiment: SPR, p62 immobilised on CM5 chip

KD (reference: p62S403Pi (monophosphorylated), sites S407)	KD (reference: p62S407Pi (monophosphorylated), sites S403)	KD (reference: recombinant p62 WT, unphosphorylated, sites S403,S407)	Substance
stronger; reference 4.4 ± 0.4 μM	stronger; reference 14.8 ± 1.0 μM	–	p62/SQSTM1 (sequestosome-1) 320-436 (from UniProt Q13501) p62 2Pi (pS403/pS407)
–	–	stronger; reference 167.9 ± 13.0 μM	p62/SQSTM1 (sequestosome-1) 320-436 (from UniProt Q13501) semisynthetic p62 2Pi (pS403/pS407)
